Reference: patent US20070059799A1
No end group written: not given here.

Target: HLA-A*0301 (human)
Assay: not given
Conditions: not given

Row | Binder | binding affinity ratio (IC50 of standard peptide / IC50 of test peptide)
1 | RTPSPRRR (modifications not checked) [HBV NUC 188 RTPSPRRR] | -0.0002
2 | NSVVLSRK (modifications not checked) [HBV POL 738 NSVVLSRK] | 0.0006
3 | LVPFVQWF (modifications not checked) [HBV ENV 339 LVPFVQWF] | 0.0028
4 | SAGPCALRF (modifications not checked) [HBV X 65 …] | -0.0003
5 | NLEDPASR (modifications not checked) [HBV NUC 75 NLEDPASR] | -0.0002
6 | SALNPADDPSR (modifications not checked) [HBV POL 771 …] | -0.0004
7 | LTVNEKRR (modifications not checked) [HBV POL 99 LTVNEKRR] | -0.0002
8 | SSAGPCALRF (modifications not checked) [HBV X 64 …] | -0.0003
9 | LVVDFSQF (modifications not checked) [HBV POL 377 LWDFSQF] | 0.0016
10 | NLNVSIPWTHK (modifications not checked) [HBV POL 45 …] | -0.0009

Same assay, conditions: remark: other sources report otherwise

Row | Binder | binding affinity ratio (IC50 of standard peptide / IC50 of test peptide)
11 | SAGPCALR (modifications not checked) [HBV X 65 SAGPCALR] | -0.0002
12 | SAICSVVR (modifications not checked) [HBV POL 520 SAICSVVR] | -0.0002

Target: HLA-A*3301 (human)
Assay: competition with 125I-labelled probe peptide for purified HLA, gel filtration
Conditions: not given

Row | Binder | binding affinity ratio (IC50 of standard peptide / IC50 of test peptide)
13 | GIHLNPNKTK (modifications not checked) [HBV POL 567 peptide …] | 0.0009

Target: HLA-A*3101 (human)
Assay: as above
Conditions: not given

Row | Binder | binding affinity ratio (IC50 of standard peptide / IC50 of test peptide)
14 | GIHLNPNKTK (modifications not checked) [HBV POL 567 peptide …] | 0.0009

Same assay, conditions: remark: other sources report otherwise

Row | Binder | IC50
15 | FVLGGCRHK (modifications not checked) [peptide 1.0219 (HBV X 1550, …)] | 1500 nM
16 | KVFVLGGCR (modifications not checked) [peptide 1.0993 (HBV X 130, …)] | 30 nM
17 | SSAGPCALR (modifications not checked) [peptide 26.0153 (HBV X 64, …)] | 55 nM

Target: HLA-A*0201 (human)
Assay: not given
Conditions: not given

Row | Binder | binding affinity ratio (IC50 of standard peptide / IC50 of test peptide)
18 | LLDYQGML (modifications not checked) [HBV ENV 260 LLDYQGML] | 0.0004
19 | FIIFLFIL (modifications not checked) [HBV ENV 243 8-mer FIIFLFIL] | 0.0006
20 | NLGNLNVSI (modifications not checked) [HBV POL 42 peptide …] | 0.0047
21 | FLFILLLCL (modifications not checked) [HBV ENV 246 9-mer …] | 0.0002
22 | LIFLLVLL (modifications not checked) [HBV ENV 254 LIFLLVLL] | 0.0025
23 | LLTRILTI (modifications not checked) [HBV ENV 184 LLTRILTI] | 0.0026
24 | DLNLGNLNV (modifications not checked) [HBV POL 40 9-mer …] | 0.0004
25 | LLGCAANWI (modifications not checked) [HBV POL 752 …] | 0.0011
26 | LVSFGVWI (modifications not checked) [HBV NUC 119 peptide LVSFGVWI] | 0.0004
27 | NLLSSNLSWL (modifications not checked) [HBV POL 406 peptide …] | 0.0016

Target: HLA-A*0301 (human)
Assay: not given
Conditions: not given
Remark: another data set of the same source

Row | Binder | binding affinity ratio (IC50 of standard peptide / IC50 of test peptide)
28 | TSAICSVVRR (modifications not checked) [HBV POL 519 …] | 0.0018
29 | RAFPHCLAF (modifications not checked) [HBV POL 528 peptide …] | 0.0015
30 | WLSLDVSAAFY (not fully specified) [[…] (HBV POL 414)] | 0.0034
31 | LSTLPETTVVR (modifications not checked) [HBV NUC 169 …] | -0.0009
32 | RSPRRRTPSPR (modifications not checked) [HBV NUC 163 peptide …] | -0.0007
33 | YLPLDKGIKPY (modifications not checked) [… (HBV POL 122)] | -0.0004
34 | LSWLSLDVSA (modifications not checked) [HBV POL 412 …] | 0.0048
35 | SVVLSRKY (modifications not checked) [HBV POL 739 SVVLSRKY] | -0.0002
36 | VVRRRGRSPR (modifications not checked) [HBV NUC 177 peptide […] (as printed)] | 0.0027
37 | CLIFLLVLLDY (modifications not checked) [HBV ENV 253 …] | 0.0083
38 | GLLGFAAPF (modifications not checked) [HBV POL 627 peptide …] | 0.0006

Target: HLA-A*0201 (human)
Assay: competition with 125I-labelled standard peptide for purified HLA, gel filtration
Conditions: not given

Row | Binder | binding affinity ratio (IC50 of standard peptide / IC50 of test peptide)
39 | CLAFSYMDDV (modifications not checked) [HBV POL 533 peptide …] | 0.0008
40 | IVGLLGFAA (modifications not checked) [HBV POL 625 peptide …] | 0.0009
41 | ILLLCLIFLLV (modifications not checked) [HBV ENV 249 peptide …] | 0.0056
42 | ILLLCLIFL (modifications not checked) [HBV ENV 249 peptide … (9-mer, as printed)] | 0.0015
43 | CIPIPSSWA (modifications not checked) [HBV ENV 312 peptide …] | 0.001
44 | CLGWLWGMDI (modifications not checked) [HBV NUC 23 peptide …] | 0.0093
45 | AICSVVRRA (modifications not checked) [HBV POL 521 peptide …] | 0.0001
46 | CLIFLLVL (modifications not checked) [HBV ENV 253 peptide CLIFLLVL] | 0.0002

Same assay, conditions: remark: other sources report otherwise

Row | Binder | binding affinity ratio (IC50 of standard peptide / IC50 of test peptide)
47 | AMSTTDLEA (modifications not checked) [HBV X 102 peptide …] | 0.0013
